For experiment [1], the target named is T1, thrombin (Homo sapiens (Human), UniProt P00734 315-363; P00734 364-622). Kind of experiment: cell-based or functional assay.
Experiment [2] concerns the target T1, thrombin. Kind of experiment: calculated from kon and koff (equation 7).
The target in experiment [3] is T1, thrombin. Kind of experiment: enzyme kinetics, S-2238 hydrolysis by thrombin; Morrison tight binding equation.
Experiment [4] concerns the target T1, thrombin. Kind of experiment: enzyme kinetics, S-2238 hydrolysis by thrombin; nonlinear regression for competing enzyme inhibition.
Experiment [5] concerns the target T1, thrombin. Briefly: progress curves of S-2238 hydrolysis by thrombin; kobs plotted against recombinant protein concentration.
For experiment [6], the target named is T1, thrombin. Kind of experiment: enzyme kinetics, S-2238 hydrolysis by thrombin 0.1 nM; apparent Km from Lineweaver-Burk plots against inhibitor concentration; competing inhibition.

For orientation: koff means the rate constant with which the complex falls apart. One may read the kon as the rate constant with which the complex forms.

Regarding GKPQGHPHDALEARSDAVHTAVPKMPKGGHGGFEPIPIDYDERALEAR [Recombinant protein fragment of HPLC peak H1 generated by factor Xa (SEQ ID NO: 10)], the “thrombin inhibition activity retained, relative to non-hydrolyzed recombinant protein (S-2238 hydrolysis, thrombin 0.1 nM, fragment 100 pM)” value with thrombin [1] is ~50 % of preserved recombinant protein.

B1: Recombinant protein (SEQ ID NO: 1), modified from sculptin of the tick Amblyomma cajennense (other)
chain: GKPQGHPHDALEARSDAVHTAVPKMPKGGHGGFEPIPIDYDERALEARSDAVHTAVPKMPKGGLGGFEPIPIDYDERALEARSDAVHTAVPKMPKGGHGGFEPIPIDYDERALEARSDAVHTAVPKMPKGGHGGFEPIPIDYDERALHALEHHHHHH
notes: Expressed in E. coli BL21(DE3) from pET28a, without signal peptide and with a C-terminal polyhistidine tail; Mass 16990.90 Da by MALDI-TOF; also called Scpt; preserved recombinant protein
In the case of B1, the “IC50 of thrombin inhibition (hydrolysis of S-2238 by thrombin 0.1 nM)” value with thrombin [1] was 86.6 pM. Besides, the Ki with thrombin [2] was 0.0161 nM; in the experiment with thrombin [3], 0.0195 nM; in the experiment with thrombin [4] it was 0.0181 nM; with thrombin [6], 0.0185 nM. In addition, in the experiment with thrombin [5], the koff is 0.00065 s⁻¹. The kon with thrombin [5] is 4.04e+07 M⁻¹ s⁻¹.

These data come from patent publication US20230151079A1 (FUNDA O BUTANTAN, published 2023).
